From PMC2898367 (The Journal of Biological Chemistry, 2010)

B1: CD81 tagged with AcGFP or DsRED, P60033 1-236 (natural protein)
chain: MGVEGCTKCIKYLLFVFNFVFWLAGGVILGVALWLRHDPQTTNLLYLELGDKPAPNTFYVGIYILIAVGAVMMFVGFLGCYGAIQESQCLLGTFFTCLVILFACEVAAGIWGFVNKDQIAKDVKQFYDQALQQAVVDDDANNAKAVVKTFHETLDCCGSSTLTALTTSVLKNNLCPSGSNIISNLFKEDCHQKIDDLFSGKLYLIGIAAIVVAVIMIFEMILSMVLCCGIRNSSVY
B2: AcGFP-tagged Claudin-6 (natural protein, UniProt P56747 1-220, looked up)
chain: MASAGMQILGVVLTLLGWVNGLVSCALPMWKVTAFIGNSIVVAQVVWEGLWMSCVVQSTGQMQCKVYDSLLALPQDLQAARALCVIALLVALFGLLVYLAGAKCTTCVEEKDSKARLVLTSGIVFVISGVLTLIPVCWTAHAIIRDFYNPLVAEAQKRELGASLYLGWAASGLLLLGGGLLCCTCPSGGSQGPSHYMARYSTSAPAISRGPSEYPTKNYV
B3: AcGFP-tagged Claudin-9 (natural protein, UniProt O95484 1-217, looked up)
chain: MASTGLELLGMTLAVLGWLGTLVSCALPLWKVTAFIGNSIVVAQVVWEGLWMSCVVQSTGQMQCKVYDSLLALPQDLQAARALCVIALLLALLGLLVAITGAQCTTCVEDEGAKARIVLTAGVILLLAGILVLIPVCWTAHAIIQDFYNPLVAEALKRELGASLYLGWAAAALLMLGGGLLCCTCPPPQVERPRGPRLGYSIPSRSGASGLDKRDYV
B4: AcGFP-tagged Claudin-11 (natural protein, UniProt O75508 1-207, looked up)
chain: MVATCLQVVGFVTSFVGWIGVIVTTSTNDWVVTCGYTIPTCRKLDELGSKGLWADCVMATGLYHCKPLVDILILPGYVQACRALMIAASVLGLPAILLLLTVLPCIRMGQEPGVAKYRRAQLAGVLLILLALCALVATIWFPVCAHRETTIVSFGYSLYAGWIGAVLCLVGGCVILCCAGDAQAFGENRFYYTAGSSSPTHAKSAHV
B5: AcGFP-tagged Claudin-12 (natural protein, UniProt P56749 1-244, looked up)
chain: MGCRDVHAATVLSFLCGIASVAGLFAGTLLPNWRKLRLITFNRNEKNLTVYTGLWVKCARYDGSSDCLMYDTTWYSSVDQLDLRVLQFALPLSMLIAMGALLLCLIGMCNTAFRSSVPNIKLAKCLVNSAGCHLVAGLLFFLAGTVSLSPSIWVIFYNIHLNKKFEPVFSFDYAVYVTIASAGGLFMTSLILFIWYCTCKSLPSPFWQPLYSHPPSMHTYSQPYSARSRLSAIEIDIPVVSHTT
B6: AcGFP-tagged Claudin-17 (natural protein, UniProt P56750 1-224, looked up)
chain: MAFYPLQIAGLVLGFLGMVGTLATTLLPQWRVSAFVGSNIIVFERLWEGLWMNCIRQARVRLQCKFYSSLLALPPALETARALMCVAVALSLIALLIGICGMKQVQCTGSNERAKAYLLGTSGVLFILTGIFVLIPVSWTANIIIRDFYNPAIHIGQKRELGAALFLGWASAAVLFIGGGLLCGFCCCNRKKQGYRYPVPGYRVPHTDKRRNTTMLSKTSTSYV
B7: AcGFP-tagged Claudin-4 (natural protein, UniProt O14493 1-209, looked up)
chain: MASMGLQVMGIALAVLGWLAVMLCCALPMWRVTAFIGSNIVTSQTIWEGLWMNCVVQSTGQMQCKVYDSLLALPQDLQAARALVIISIIVAALGVLLSVVGGKCTNCLEDESAKAKTMIVAGVVFLLAGLMVIVPVSWTAHNIIQDFYNPLVASGQKREMGASLYVGWAASGLLLLGGGLLCCNCPPRTDKPYSAKYSAARSAAASNYV
B8: Claudin-1 tagged with AcGFP or DsRED (natural protein, UniProt O95832 1-211, looked up)
chain: MANAGLQLLGFILAFLGWIGAIVSTALPQWRIYSYAGDNIVTAQAMYEGLWMSCVSQSTGQIQCKVFDSLLNLSSTLQATRALMVVGILLGVIAIFVATVGMKCMKCLEDDEVQKMRMAVIGGAIFLLAGLAILVATAWYGNRIVQEFYDPMTPVNARYEFGQALFTGWAAASLCLLGGALLCCSCPRKTTSYPTPRPYPKPAPSSGKDYV

Key:
Experiment in all cases: FRET or BRET
[1] = target: CD81 tagged with AcGFP or DsRED (UniProt P60033)
[2] = target: T1, CD81 tagged with AcGFP or DsRED, P60033; details: remark: other sources report otherwise
T1 chain: B1 chain

[3] = target: B8
[4] = target: T2, CD81 tagged with AcGFP or DsRED (UniProt P60033 1-236)
T2 sequence (looked up): B1 chain

DsRED-tagged Occludin = target: T3, DsRED-tagged Occludin (UniProt Q16625 1-522)
T3 sequence (looked up): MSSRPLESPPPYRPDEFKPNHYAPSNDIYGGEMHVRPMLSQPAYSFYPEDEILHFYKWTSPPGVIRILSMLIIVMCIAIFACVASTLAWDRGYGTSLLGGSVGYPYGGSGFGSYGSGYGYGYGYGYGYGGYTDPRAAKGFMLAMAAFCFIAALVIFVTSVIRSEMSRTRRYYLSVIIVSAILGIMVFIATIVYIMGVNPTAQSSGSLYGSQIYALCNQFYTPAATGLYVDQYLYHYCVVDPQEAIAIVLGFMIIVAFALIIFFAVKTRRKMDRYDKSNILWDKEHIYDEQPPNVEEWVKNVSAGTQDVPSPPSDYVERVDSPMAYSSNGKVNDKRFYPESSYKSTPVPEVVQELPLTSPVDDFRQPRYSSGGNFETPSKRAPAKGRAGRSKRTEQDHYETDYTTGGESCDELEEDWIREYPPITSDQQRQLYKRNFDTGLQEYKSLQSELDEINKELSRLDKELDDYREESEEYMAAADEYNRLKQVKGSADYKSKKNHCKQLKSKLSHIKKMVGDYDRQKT

Row | Molecule | %FRET [3] | %FRET (DsRED-tagged Occludin) | also measured
1 | Claudin-1 tagged with AcGFP or DsRED (from UniProt O95832 1-211) (natural protein) |  |  | %FRET [1]: 25%; %FRET (after 10 mM MβCD, 1 h) [1]: 35%
2 | B1 |  |  | %FRET (after 10 mM MβCD, 1 h) [2]: 55%; %FRET (untreated cells) [2]: 63%
3 | B2 | 31% | 27% | %FRET [4]: 50%
4 | B3 | 18% | 18% | %FRET [4]: 63%
5 | B4 |  | 23% | 
6 | B5 |  | 38% | 
7 | B6 |  | 40% | 
8 | B7 | 18% |  | 
9 | B8 |  | 48% | 
